For 2 molecules, binding result and Kd results are on record in patent publication US20100273676A1 (GENERAL HOSPITAL, published 2010).

Ends that are not written are not given here. * marks the point of attachment. FITC = O=C1OC2(c3ccc(O)cc3Oc3cc(O)ccc32)c2ccc(NC(=S)*)cc21

Assay [1] deals with GST (glutathione S-transferase) (UniProt P08515 1-218 = GST). As to the kind of experiment: fluorescence polarization.
The target in assay [2] is T1, GST-tagged CgGal11Ap KIX domain (amino acids 1-86) (C. glabrata, UniProt P08515 1-218 = GST). As to the kind of experiment: fluorescence polarization, FITC peptide with increasing GST-CgGal11Ap KIX. Background: Fluorescence polarisation rises when a labelled molecule tumbles more slowly, as on binding a larger partner.
T1 sequence (P08515 whole entry, the tested form may be a part): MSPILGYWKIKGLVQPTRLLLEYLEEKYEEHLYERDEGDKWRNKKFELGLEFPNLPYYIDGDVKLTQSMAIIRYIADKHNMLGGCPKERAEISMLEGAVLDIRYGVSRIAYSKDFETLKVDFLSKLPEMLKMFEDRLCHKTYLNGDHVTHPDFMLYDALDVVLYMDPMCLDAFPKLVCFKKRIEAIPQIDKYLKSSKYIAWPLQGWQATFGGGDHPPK
For assay [3], the target named is T1, GST-tagged CgGal11Ap KIX domain (amino …). As to the kind of experiment: fluorescence anisotropy/polarization, FITC peptide with increasing GST-CgGal11Ap KIX.
For assay [4] the target is unchanged. As to the kind of experiment: fluorescence polarization, salt and pH adjusted.

Sequence of GST (glutathione S-transferase) (P08515 whole entry, the tested form may be a part): as above

B1: FITC-CgPdr1pAD-30 (FITC-LGTLDEFVNKGDLNELYNSLWGDLFSDVYL) (peptide)
peptide: {FITC}-LGTLDEFVNKGDLNELYNSLWGDLFSDVYL
notes: also called FITC-labled-CgPdr1pAD-30; Fluorescein-tagged CgPdr1pAD-30 peptide
Take B1: the binding result in assay [1] is listed as “no binding”. Further, the dissociation constant Kd (usually the concentration at which binding is half-saturated) in assay [2] was around 780 nM; in assay [3], around 2000 nM; in assay [4], around 700 nM.

B2: Fluorescein-conjugated 15-amino acid CgPdr1pAD peptide (FITC-LYNSLWGDLFSDVYL) (peptide)
peptide: {FITC}-LYNSLWGDLFSDVYL
notes: also called short Fluorescein-tagged CgPdr1pAD peptide
In turn, B2 registered a dissociation constant Kd in assay [3] of around 210000 nM.
